How the values were obtained:
[1] = biological target: Protocadherin alpha-4 (Pcdha4) of MLO-Y4 cells (mouse) (UniProt O88689); assay: DTSSP cross-linking on MLO-Y4 cells, his-tag pull-down, TMT mass spectrometry; adipsin (control) channel
[2] = biological target: T1, CD81 antigen (Cd81) of MLO-Y4 cells (mouse) (UniProt P35762); assay: as above
T1 sequence (looked up): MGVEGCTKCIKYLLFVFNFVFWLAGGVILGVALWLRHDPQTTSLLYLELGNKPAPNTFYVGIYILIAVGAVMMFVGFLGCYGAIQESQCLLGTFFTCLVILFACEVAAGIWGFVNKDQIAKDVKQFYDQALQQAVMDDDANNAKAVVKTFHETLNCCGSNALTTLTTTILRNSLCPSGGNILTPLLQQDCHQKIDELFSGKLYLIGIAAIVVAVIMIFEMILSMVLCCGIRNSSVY

[3] = biological target: Integrin beta-1 (Itgb1) of MLO-Y4 cells (mouse) (UniProt P09055); assay: as above
Chain of Integrin beta-1 (Itgb1) of MLO-Y4 cells (mouse) (P09055 21-798): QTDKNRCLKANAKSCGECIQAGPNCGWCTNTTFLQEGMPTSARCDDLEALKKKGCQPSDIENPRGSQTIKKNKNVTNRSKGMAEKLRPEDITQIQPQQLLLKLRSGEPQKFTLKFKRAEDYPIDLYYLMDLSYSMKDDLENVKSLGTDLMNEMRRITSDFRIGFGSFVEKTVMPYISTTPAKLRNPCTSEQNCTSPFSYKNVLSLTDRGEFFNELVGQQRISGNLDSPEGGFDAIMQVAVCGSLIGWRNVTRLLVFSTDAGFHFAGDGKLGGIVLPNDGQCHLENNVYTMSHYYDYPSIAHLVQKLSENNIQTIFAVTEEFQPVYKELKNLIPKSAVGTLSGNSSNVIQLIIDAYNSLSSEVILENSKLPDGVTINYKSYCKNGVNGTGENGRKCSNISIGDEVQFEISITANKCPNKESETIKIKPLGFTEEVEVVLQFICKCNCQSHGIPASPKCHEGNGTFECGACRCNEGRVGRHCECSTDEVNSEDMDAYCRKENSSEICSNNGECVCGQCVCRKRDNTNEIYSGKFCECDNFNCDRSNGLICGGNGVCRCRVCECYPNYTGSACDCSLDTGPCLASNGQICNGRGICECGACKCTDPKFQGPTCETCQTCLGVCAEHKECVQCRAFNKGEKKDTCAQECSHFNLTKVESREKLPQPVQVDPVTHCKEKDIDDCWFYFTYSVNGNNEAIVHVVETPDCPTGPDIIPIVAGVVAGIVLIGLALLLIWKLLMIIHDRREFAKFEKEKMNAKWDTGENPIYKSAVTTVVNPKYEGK

[4] = biological target: T2, Integrin beta-5 (Itgb5) of MLO-Y4 cells (mouse) (UniProt O70309); assay: as above
T2 sequence (looked up): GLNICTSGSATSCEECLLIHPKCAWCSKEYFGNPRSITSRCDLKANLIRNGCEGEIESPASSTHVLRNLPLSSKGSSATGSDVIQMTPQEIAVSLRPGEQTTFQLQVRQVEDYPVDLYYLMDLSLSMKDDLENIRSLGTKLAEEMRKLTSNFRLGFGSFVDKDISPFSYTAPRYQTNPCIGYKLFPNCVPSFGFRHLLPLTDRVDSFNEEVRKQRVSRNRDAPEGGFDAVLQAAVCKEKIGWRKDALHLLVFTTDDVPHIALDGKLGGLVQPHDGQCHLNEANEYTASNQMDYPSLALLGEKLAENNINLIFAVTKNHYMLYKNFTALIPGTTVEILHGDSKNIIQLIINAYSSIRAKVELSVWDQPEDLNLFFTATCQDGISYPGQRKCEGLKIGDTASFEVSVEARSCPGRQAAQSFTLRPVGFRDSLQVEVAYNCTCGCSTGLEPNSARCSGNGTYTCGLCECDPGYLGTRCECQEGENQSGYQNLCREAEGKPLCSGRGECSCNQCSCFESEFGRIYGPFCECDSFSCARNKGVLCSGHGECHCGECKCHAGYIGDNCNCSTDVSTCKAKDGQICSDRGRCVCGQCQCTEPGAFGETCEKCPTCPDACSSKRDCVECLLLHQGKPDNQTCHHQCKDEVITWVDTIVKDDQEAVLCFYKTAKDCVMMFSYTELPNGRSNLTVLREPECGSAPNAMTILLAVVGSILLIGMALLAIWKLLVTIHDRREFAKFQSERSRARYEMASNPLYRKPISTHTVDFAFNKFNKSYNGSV

[5] = biological target: T3, Integrin alpha-V (Itgav) of MLO-Y4 cells (mouse) (UniProt P43406); assay: as above
T3 sequence (looked up): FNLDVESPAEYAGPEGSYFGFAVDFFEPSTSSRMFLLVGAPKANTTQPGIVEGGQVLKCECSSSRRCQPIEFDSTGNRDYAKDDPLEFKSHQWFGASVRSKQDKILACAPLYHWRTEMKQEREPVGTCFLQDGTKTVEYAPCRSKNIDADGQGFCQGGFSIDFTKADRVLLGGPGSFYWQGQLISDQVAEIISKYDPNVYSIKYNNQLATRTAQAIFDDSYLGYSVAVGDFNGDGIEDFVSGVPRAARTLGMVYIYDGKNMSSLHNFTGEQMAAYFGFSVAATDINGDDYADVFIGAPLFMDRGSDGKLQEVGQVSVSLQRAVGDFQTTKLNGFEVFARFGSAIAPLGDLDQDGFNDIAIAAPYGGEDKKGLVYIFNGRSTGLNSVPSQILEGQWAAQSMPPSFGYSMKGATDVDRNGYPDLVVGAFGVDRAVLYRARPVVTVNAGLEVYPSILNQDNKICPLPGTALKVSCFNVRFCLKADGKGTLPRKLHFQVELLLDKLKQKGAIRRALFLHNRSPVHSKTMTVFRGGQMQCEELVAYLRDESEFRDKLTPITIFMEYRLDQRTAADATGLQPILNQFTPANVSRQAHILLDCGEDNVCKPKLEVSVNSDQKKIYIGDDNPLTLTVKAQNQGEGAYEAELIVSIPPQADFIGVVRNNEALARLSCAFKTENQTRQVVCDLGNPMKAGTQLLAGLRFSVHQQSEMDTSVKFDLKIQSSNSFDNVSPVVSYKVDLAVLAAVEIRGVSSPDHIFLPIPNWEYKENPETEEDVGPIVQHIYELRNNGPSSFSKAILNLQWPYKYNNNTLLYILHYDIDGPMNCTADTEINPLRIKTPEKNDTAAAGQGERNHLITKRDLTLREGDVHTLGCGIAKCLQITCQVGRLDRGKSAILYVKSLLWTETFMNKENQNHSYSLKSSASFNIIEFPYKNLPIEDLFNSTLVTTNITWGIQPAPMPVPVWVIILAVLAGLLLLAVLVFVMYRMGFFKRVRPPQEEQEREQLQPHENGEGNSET

[6] = biological target: T4, Membrane magnesium transporter 1 (Mmgt1) of MLO-Y4 cells (mouse) (UniProt Q8K273); assay: as above
T4 sequence (looked up): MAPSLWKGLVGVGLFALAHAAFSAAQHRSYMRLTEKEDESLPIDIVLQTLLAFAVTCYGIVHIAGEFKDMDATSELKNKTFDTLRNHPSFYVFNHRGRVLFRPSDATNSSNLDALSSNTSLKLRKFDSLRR

[7] = biological target: Fibronectin type III domain-containing protein 3B (Fndc3b) of MLO-Y4 cells (mouse) (UniProt Q6NWW9); assay: as above
Chain of Fibronectin type III domain-containing protein 3B (Fndc3b) of MLO-Y4 cells (mouse) (Q6NWW9 whole entry, the tested form may be a part): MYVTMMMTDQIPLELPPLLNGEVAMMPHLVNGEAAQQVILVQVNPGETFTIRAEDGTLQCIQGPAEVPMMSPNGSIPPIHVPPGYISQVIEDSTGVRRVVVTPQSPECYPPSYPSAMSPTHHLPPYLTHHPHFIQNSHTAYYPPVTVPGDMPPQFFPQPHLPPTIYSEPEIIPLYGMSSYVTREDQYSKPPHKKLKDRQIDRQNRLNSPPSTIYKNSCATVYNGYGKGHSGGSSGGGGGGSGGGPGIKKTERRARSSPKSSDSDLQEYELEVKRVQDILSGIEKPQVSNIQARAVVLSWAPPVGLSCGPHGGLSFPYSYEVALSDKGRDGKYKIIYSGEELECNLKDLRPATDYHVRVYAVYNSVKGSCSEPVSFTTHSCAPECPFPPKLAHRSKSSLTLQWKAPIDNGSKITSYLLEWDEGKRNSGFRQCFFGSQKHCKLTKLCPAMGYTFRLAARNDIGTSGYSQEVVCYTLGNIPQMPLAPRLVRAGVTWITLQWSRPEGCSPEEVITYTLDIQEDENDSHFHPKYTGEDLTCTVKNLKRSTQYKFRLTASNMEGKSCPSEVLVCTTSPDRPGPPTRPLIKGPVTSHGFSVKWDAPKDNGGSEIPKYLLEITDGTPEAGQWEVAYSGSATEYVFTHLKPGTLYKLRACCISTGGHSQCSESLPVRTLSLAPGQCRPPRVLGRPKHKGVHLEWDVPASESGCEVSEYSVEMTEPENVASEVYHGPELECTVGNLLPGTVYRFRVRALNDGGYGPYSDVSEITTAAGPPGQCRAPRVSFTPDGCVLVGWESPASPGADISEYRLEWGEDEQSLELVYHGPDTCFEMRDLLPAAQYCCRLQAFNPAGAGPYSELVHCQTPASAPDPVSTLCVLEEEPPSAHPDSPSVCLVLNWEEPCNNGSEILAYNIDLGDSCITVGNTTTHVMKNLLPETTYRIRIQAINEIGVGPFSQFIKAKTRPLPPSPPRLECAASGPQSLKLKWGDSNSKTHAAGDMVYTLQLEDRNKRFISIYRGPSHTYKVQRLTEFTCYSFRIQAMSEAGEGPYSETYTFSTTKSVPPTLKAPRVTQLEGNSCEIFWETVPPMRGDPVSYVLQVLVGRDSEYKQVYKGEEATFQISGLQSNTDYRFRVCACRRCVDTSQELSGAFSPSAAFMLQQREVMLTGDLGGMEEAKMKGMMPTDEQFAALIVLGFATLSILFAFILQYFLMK

[8] = biological target: Protocadherin alpha-4 (Pcdha4) of MLO-Y4 cells (mouse) (UniProt O88689); assay: DTSSP cross-linking of his-tag ligand on MLO-Y4 cells, his-tag pull-down, TMT quantitative mass spectrometry; ratio to his-tag adipsin control
[9] = biological target: Membrane magnesium transporter 1 (Mmgt1) of MLO-Y4 cells (mouse) (UniProt Q8K273); assay: as above
[10] = biological target: T1, CD81 antigen (Cd81) of MLO-Y4 cells (mouse); assay: as above
[11] = biological target: Fibronectin type III domain-containing protein 3B (Fndc3b) of MLO-Y4 cells (mouse) (UniProt Q6NWW9); assay: as above
[12] = biological target: Protocadherin alpha-4 (Pcdha4) of MLO-Y4 cells (mouse) (UniProt O88689); assay: DTSSP cross-linking on MLO-Y4 cells, his-tag pull-down, TMT mass spectrometry; irisin channel
[13] = biological target: Membrane magnesium transporter 1 (Mmgt1) of MLO-Y4 cells (mouse) (UniProt Q8K273); assay: as above
[14] = biological target: T1, CD81 antigen (Cd81) of MLO-Y4 cells (mouse); assay: as above
[15] = biological target: Fibronectin type III domain-containing protein 3B (Fndc3b) of MLO-Y4 cells (mouse) (UniProt Q6NWW9); assay: as above

Chain of Protocadherin alpha-4 (Pcdha4) of MLO-Y4 cells (mouse) (O88689 other isoform, or with tags, fused parts or gaps): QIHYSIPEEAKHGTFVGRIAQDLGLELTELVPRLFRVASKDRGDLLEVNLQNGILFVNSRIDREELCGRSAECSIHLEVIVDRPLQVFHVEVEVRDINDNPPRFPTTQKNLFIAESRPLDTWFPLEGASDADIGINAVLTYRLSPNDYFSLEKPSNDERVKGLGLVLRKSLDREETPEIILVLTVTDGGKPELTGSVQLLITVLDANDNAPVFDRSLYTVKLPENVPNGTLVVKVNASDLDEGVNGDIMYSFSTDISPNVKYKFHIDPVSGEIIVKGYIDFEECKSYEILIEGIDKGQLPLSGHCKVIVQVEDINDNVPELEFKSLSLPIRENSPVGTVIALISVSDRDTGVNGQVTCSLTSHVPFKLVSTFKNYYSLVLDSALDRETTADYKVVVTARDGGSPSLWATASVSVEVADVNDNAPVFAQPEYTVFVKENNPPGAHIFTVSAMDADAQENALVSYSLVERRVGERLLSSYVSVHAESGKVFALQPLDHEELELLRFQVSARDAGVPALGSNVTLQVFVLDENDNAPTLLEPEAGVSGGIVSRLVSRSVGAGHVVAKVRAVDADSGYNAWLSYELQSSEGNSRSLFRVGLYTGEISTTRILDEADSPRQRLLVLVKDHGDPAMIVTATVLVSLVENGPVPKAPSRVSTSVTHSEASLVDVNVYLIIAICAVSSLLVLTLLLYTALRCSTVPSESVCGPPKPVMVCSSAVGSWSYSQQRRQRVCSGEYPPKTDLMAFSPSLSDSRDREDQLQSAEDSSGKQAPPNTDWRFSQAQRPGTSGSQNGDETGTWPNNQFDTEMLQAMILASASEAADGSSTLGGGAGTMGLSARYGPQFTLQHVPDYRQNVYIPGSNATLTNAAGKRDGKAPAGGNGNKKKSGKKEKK
Chain of His-tag adipsin (R&D Systems, Cat. # AF1824-SP) (P00746 26-253): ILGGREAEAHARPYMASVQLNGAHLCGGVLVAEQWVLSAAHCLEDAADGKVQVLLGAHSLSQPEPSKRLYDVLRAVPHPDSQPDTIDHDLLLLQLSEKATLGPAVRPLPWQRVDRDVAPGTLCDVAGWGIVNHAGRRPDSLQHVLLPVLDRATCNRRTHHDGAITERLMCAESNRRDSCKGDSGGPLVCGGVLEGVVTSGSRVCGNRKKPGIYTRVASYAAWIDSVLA

Substance: His-tag adipsin (R&D Systems, Cat. # AF1824-SP)
- summed signal-to-noise value for TMT channel [1]: 17.1
- summed signal-to-noise value for TMT channel [2]: 105
- summed signal-to-noise value for TMT channel [3]: 250
- summed signal-to-noise value for TMT channel [4]: 148
- summed signal-to-noise value for TMT channel [5]: 54.4
- summed signal-to-noise value for TMT channel [6]: 17.4
- summed signal-to-noise value for TMT channel [7]: 449

Substance: His-tag recombinant irisin (irisin (human/mouse) with a C-terminal 10 his tag, produced in HEK293 cells) (from UniProt Q8K3V5 60-171) (ligand)
- irsin/adipsin (TMT ratio) [8]: 4.39
- irsin/adipsin (TMT ratio) [9]: 2.94
- irsin/adipsin (TMT ratio) [10]: 4.05
- irsin/adipsin (TMT ratio) [11]: 2.88
- summed signal-to-noise value for TMT channel [12]: 75.2
- summed signal-to-noise value for TMT channel [13]: 51.2
- summed signal-to-noise value for TMT channel [14]: 427
- summed signal-to-noise value for TMT channel [15]: 1290

Reference: patent US20210063414A1, “METHODS FOR PREVENTING AND/OR TREATING BONE LOSS CONDITIONS BY MODULATING IRISIN” (Dana-Farber Cancer Institute, Inc., priority 2018, published 2021)
